Laboratory results as given in patent US20200085917A1.

Tests used:
[1] = target: Slc25a1_IPI:IPI00276926.3 (mouse) (UniProt Q8JZU2); assay: GST pull-down, LC-MS/MS
[2] = target: T1, Nipsnap1_IPI:IPI00115824.1 (mouse) (UniProt O55125); assay: GST pull-down, LC-MS/MS
T1 sequence (looked up): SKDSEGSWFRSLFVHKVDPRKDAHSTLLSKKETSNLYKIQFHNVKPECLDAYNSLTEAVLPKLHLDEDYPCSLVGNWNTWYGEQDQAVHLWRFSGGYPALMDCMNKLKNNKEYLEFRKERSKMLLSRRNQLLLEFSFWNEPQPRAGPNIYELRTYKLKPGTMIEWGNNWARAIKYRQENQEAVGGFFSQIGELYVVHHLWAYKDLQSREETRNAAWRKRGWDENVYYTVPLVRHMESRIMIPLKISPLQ

[3] = target: T2, Syngr3_IPI:IPI00331579.1 (mouse) (UniProt Q8R191); assay: GST pull-down, LC-MS/MS
T2 sequence (looked up): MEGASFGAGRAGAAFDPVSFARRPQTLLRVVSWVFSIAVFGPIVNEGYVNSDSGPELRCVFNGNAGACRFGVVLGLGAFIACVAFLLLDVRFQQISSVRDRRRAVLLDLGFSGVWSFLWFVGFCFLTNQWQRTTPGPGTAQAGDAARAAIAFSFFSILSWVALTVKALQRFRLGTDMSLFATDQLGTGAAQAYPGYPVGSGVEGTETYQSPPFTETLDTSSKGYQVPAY

[4] = target: T3, Ccdc127_IPI:IPI00131843.3 (mouse) (UniProt Q3TC33); assay: GST pull-down, LC-MS/MS
T3 sequence (looked up): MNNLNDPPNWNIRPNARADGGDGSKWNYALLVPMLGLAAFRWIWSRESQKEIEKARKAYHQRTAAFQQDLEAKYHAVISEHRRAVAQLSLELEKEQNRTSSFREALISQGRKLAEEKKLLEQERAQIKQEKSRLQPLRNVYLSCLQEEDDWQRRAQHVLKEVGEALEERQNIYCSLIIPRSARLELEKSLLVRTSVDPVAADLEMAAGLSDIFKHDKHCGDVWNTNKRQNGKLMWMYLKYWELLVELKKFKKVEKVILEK

[5] = target: mt-Co2_IPI:IPI00131176.1 (mouse) (UniProt P00405); assay: GST pull-down, LC-MS/MS
Chain of mt-Co2_IPI:IPI00131176.1 (mouse) (P00405 whole entry): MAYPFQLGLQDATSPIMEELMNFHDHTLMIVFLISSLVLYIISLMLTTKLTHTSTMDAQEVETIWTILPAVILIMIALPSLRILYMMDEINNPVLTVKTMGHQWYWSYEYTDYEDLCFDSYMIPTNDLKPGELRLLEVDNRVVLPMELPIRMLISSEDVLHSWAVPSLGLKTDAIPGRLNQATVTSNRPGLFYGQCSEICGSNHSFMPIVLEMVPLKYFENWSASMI

[6] = target: Ndufb5_IPI:IPI00132531.1 (mouse) (UniProt Q9CQH3); assay: GST pull-down, LC-MS/MS
Chain of Ndufb5_IPI:IPI00132531.1 (mouse) (Q9CQH3 47-189 limits assumed): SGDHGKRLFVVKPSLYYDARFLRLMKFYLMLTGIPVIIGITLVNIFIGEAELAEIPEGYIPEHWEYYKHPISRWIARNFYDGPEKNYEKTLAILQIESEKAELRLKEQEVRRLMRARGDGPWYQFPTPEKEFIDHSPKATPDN

[7] = target: T4, Sfxn5_IPI:IPI00221602.1 (mouse) (UniProt Q925N0); assay: GST pull-down, LC-MS/MS
T4 sequence (looked up): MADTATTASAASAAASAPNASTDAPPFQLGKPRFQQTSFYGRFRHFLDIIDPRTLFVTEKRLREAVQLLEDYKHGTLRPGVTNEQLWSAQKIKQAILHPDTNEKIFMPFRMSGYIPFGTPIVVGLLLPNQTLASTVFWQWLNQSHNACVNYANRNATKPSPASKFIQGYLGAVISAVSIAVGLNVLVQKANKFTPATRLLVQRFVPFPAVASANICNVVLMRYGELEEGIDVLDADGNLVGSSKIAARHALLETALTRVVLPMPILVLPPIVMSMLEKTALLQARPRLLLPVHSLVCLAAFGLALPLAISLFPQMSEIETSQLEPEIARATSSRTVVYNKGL

[8] = target: Tuba4a_IPI:IPI00117350.1 (mouse) (UniProt P68368); assay: GST pull-down, LC-MS/MS
Chain of Tuba4a_IPI:IPI00117350.1 (mouse) (P68368 whole entry): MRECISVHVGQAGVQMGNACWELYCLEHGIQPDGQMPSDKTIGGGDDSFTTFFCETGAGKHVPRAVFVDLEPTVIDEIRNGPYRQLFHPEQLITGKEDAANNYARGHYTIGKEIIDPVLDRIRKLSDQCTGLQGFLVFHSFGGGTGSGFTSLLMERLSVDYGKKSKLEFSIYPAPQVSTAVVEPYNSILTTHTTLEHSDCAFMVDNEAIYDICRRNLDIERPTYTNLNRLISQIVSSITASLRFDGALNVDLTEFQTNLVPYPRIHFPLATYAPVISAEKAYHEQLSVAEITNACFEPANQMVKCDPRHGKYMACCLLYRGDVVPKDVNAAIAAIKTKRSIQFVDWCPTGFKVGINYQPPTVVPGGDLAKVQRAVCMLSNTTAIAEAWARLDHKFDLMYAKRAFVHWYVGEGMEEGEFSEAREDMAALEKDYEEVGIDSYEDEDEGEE

[9] = target: Slc1a2_IPI:IPI00230289.1 (mouse) (UniProt P43006); assay: GST pull-down, LC-MS/MS
Chain of Slc1a2_IPI:IPI00230289.1 (mouse) (P43006 whole entry): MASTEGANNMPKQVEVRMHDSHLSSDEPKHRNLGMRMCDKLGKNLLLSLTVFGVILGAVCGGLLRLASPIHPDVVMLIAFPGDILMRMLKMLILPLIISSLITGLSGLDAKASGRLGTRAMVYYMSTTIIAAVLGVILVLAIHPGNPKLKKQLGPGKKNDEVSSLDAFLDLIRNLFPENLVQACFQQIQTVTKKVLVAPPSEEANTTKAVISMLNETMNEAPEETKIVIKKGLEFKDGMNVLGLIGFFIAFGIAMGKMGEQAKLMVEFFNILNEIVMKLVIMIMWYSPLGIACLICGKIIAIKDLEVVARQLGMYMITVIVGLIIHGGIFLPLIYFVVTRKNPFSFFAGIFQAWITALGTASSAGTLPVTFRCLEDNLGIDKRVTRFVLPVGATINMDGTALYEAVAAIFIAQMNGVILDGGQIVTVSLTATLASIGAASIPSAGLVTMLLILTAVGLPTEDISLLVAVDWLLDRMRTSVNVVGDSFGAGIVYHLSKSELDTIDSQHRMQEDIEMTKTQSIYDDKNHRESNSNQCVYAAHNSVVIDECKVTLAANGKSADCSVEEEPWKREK

[10] = target: Loh12cr1_IPI:IPI00457620.2 (mouse); assay: GST pull-down, LC-MS/MS
[11] = target: Vsnl1_IPI:IPI00230418.5 (mouse) (UniProt P62761); assay: GST pull-down, LC-MS/MS
Chain of Vsnl1_IPI:IPI00230418.5 (mouse) (P62761 2-191 limits assumed): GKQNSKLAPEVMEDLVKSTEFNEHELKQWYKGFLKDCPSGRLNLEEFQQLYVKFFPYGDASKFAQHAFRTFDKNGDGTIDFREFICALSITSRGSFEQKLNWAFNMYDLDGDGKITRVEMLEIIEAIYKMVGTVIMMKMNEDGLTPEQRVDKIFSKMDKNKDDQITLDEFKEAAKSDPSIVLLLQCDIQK

[12] = target: Atp1a3_IPI:IPI00122048.2 (mouse) (UniProt Q6PIC6); assay: GST pull-down, LC-MS/MS
[13] = target: IPI:IPI00123176.1_IPI:IPI00123176.1 (mouse); assay: GST pull-down, LC-MS/MS
[14] = target: TIM23 complex (mitochondrial inner membrane translocase, mouse forebrain mitochondria) (mouse) (UniProt Q9WTQ8); assay: cell-based or functional assay
[15] = target: Brp44_IPI:IPI00131896.1 (mouse) (UniProt Q9D023); assay: GST pull-down, LC-MS/MS
Chain of Brp44_IPI:IPI00131896.1 (mouse) (Q9D023 whole entry): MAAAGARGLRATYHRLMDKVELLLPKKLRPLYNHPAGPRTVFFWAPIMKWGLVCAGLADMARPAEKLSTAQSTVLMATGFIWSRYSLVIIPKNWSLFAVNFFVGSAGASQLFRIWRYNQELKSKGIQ

[16] = target: Fabp5_IPI:IPI00114162.3 (mouse) (UniProt Q05816); assay: GST pull-down, LC-MS/MS
Chain of Fabp5_IPI:IPI00114162.3 (mouse) (Q05816 2-135 limits assumed): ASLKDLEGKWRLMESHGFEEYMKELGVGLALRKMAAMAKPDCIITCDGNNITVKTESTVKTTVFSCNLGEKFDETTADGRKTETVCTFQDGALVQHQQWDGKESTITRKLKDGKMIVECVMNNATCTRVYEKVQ

[17] = target: Acadsb_IPI:IPI00119842.1 (mouse) (UniProt Q9DBL1); assay: GST pull-down, LC-MS/MS
[18] = target: Lyrm4_IPI:IPI00169804.1 (mouse) (UniProt Q8K215); assay: GST pull-down, LC-MS/MS
Chain of Lyrm4_IPI:IPI00169804.1 (mouse) (Q8K215 whole entry): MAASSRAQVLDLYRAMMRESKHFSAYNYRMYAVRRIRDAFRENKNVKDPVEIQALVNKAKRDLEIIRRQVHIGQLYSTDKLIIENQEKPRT

[19] = target: Prdx3_IPI:IPI00116192.1 (mouse) (UniProt P20108); assay: GST pull-down, LC-MS/MS
Chain of Prdx3_IPI:IPI00116192.1 (mouse) (P20108 63-257 limits assumed): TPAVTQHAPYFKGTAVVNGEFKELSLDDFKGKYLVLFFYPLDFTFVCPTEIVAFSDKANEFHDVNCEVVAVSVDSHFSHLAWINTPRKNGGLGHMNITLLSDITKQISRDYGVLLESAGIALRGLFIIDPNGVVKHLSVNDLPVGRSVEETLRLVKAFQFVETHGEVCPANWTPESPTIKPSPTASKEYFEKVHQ

[20] = target: Dsg1c_IPI:IPI00331259.3 (mouse) (UniProt Q7TSF0); assay: GST pull-down, LC-MS/MS
Chain of Dsg1c_IPI:IPI00331259.3 (mouse) (Q7TSF0 50-911 limits assumed): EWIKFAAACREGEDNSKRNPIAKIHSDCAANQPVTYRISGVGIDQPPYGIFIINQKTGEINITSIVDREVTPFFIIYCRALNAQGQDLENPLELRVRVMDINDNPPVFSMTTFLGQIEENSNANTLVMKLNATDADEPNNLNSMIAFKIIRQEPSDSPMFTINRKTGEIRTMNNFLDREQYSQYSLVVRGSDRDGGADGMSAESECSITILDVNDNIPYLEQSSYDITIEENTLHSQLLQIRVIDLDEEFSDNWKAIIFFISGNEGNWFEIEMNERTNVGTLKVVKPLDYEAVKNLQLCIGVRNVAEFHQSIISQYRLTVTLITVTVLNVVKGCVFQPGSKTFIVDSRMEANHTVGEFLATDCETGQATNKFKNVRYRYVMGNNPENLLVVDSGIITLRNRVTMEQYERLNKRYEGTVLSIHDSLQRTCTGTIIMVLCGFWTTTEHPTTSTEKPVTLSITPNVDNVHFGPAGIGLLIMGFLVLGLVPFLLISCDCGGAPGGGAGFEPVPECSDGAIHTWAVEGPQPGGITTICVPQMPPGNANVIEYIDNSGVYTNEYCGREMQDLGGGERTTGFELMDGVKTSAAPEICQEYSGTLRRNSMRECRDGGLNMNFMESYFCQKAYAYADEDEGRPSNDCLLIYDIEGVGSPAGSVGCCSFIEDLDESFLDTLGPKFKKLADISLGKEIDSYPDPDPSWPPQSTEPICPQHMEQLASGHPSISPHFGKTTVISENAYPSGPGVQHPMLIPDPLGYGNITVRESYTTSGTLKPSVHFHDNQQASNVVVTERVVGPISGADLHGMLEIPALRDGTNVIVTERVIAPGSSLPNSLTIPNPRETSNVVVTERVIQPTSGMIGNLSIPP

[21] = target: Dsp_IPI:IPI00553419.3 (mouse) (UniProt E9Q557); assay: GST pull-down, LC-MS/MS
[22] = target: Tim23 (endogenous, mouse forebrain mitochondria) (mouse) (UniProt Q9WTQ8); assay: GST pull-down, LC-MS/MS
Chain of Tim23 (endogenous, mouse forebrain mitochondria) (mouse) (Q9WTQ8 whole entry): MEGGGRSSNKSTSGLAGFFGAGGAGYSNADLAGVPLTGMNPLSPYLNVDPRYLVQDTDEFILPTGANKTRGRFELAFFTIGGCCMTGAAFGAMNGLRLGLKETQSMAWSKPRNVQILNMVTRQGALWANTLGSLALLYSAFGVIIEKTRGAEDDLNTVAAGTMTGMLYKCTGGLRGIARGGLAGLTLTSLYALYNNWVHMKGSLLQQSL

Chain of GST-Httex1-23Q (P08515 1-218, tags or fused parts left off): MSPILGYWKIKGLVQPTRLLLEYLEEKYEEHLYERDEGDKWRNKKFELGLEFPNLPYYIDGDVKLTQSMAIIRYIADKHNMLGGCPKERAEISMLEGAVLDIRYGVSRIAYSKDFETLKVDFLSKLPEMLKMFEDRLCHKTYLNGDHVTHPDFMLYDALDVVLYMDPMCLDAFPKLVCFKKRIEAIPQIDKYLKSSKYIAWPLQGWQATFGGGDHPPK
Chain of Slc25a1_IPI:IPI00276926.3 (mouse) (Q8JZU2 14-311 limits assumed): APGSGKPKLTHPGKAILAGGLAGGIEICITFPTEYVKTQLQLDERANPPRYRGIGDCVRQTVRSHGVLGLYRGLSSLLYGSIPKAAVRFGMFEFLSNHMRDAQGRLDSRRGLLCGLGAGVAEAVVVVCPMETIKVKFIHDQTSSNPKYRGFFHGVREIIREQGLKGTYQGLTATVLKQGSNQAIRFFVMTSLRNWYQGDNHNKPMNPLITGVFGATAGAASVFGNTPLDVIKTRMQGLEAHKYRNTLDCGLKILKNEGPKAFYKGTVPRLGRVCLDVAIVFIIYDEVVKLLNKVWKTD

For “GST-Httex1-23Q (from UniProt P08515 1-218; P42858 1-88)”, the No. of total peptides [1] was 1 peptides, the No. of unique peptides [1] was 1 peptides and the No. of total peptides [2] was 1 peptides. The No. of unique peptides [2] was 1 peptides, the No. of total peptides [3] was 1 peptides and the No. of unique peptides [3] was 1 peptides. The No. of total peptides [4] was 2 peptides, the No. of unique peptides [4] was 2 peptides and the No. of total peptides [5] was 1 peptides. The No. of unique peptides [5] was 1 peptides, the No. of total peptides [6] was 1 peptides and the No. of unique peptides [6] was 1 peptides. It also gave a No. of total peptides [7] of 3 peptides, a No. of unique peptides [7] of 3 peptides and a No. of total peptides [8] of 3 peptides. The No. of unique peptides [8] was 3 peptides, the No. of total peptides [9] was 1 peptides and the No. of unique peptides [9] was 1 peptides. It also gave a No. of total peptides [10] of 1 peptides, a No. of unique peptides [10] of 1 peptides and a No. of total peptides [11] of 1 peptides. It also gave a No. of unique peptides [11] of 1 peptides, a No. of total peptides [12] of 2 peptides and a No. of unique peptides [12] of 2 peptides. For the same substance, the No. of total peptides [13] was 1 peptides and the No. of unique peptides [13] was 1 peptides.
In the case of “GST-Httex1-97Q (from UniProt P08515 1-218; P42858 1-88)”, the reduction of pOTC import into wild-type mouse forebrain mitochondria after incubation with 3 µM GST-Httex1-97Q, compared to control GST [14] is reported as 50%, the reduction of pOTC import into wild-type mouse forebrain mitochondria after incubation with 10 µM GST-Httex1-97Q, compared to control GST [14] is reported as 73% and the No. of total peptides [1] is reported as 2 peptides. It also gave a No. of unique peptides [1] of 2 peptides, a No. of total peptides [15] of 5 peptides and a No. of unique peptides [15] of 5 peptides. It also gave a No. of total peptides [2] of 1 peptides, a No. of unique peptides [2] of 1 peptides and a No. of total peptides [3] of 2 peptides. The No. of unique peptides [3] was 2 peptides, the No. of total peptides [16] was 1 peptides and the No. of unique peptides [16] was 1 peptides. For the same substance, the No. of total peptides [17] was 2 peptides, the No. of unique peptides [17] was 2 peptides and the No. of total peptides [4] was 5 peptides. The No. of unique peptides [4] was 5 peptides, the No. of total peptides [5] was 4 peptides and the No. of unique peptides [5] was 3 peptides. For the same substance, the No. of total peptides [6] was 1 peptides, the No. of unique peptides [6] was 1 peptides and the No. of total peptides [7] was 6 peptides. The No. of unique peptides [7] was 5 peptides, the No. of total peptides [8] was 2 peptides and the No. of unique peptides [8] was 2 peptides. For the same substance, the No. of total peptides [9] was 1 peptides, the No. of unique peptides [9] was 1 peptides and the No. of total peptides [10] was 1 peptides. The No. of unique peptides [10] was 1 peptides, the No. of total peptides [11] was 2 peptides and the No. of unique peptides [11] was 2 peptides. The No. of total peptides [12] was 3 peptides, the No. of unique peptides [12] was 3 peptides and the No. of total peptides [18] was 1 peptides. It also gave a No. of unique peptides [18] of 1 peptides, a No. of total peptides [19] of 3 peptides and a No. of unique peptides [19] of 3 peptides. The No. of total peptides [20] was 1 peptides, the No. of unique peptides [20] was 1 peptides and the No. of total peptides [21] was 4 peptides. For the same substance, the No. of unique peptides [21] was 4 peptides, the No. of total peptides [13] was 2 peptides and the No. of unique peptides [13] was 2 peptides. The No. of total peptides [22] was 1 peptides and the No. of unique peptides [22] was 1 peptides.
